# Experimental data from publication PMC7054835, “MyD88 Death-Domain Oligomerization Determines Myddosome Architecture: Implications for Toll-like Receptor Signaling” (Structure(London, England:1993), 2020).
# Molecular target: the molecule itself
# Assay: AUC; sedimentation velocity (30,000 rev/min) and sedimentation equilibrium (3200 and 4200 rev/min, 250 and 280 nm) of hMyD88^DD alone, 35 uM, 293 K, 20 mM Tris, 20 mM NaCl, pH 8.0, 5% glycerol
protein,measurement,value
"human MyD88 death domain construct (N-terminal death and intermediate domains of hMyD88, 1-151) (domain or fragment, UniProt Q99836 1-151, looked up, Myeloid differentiation primary response 88 (MyD88), human, residues 1-151: death domain plus a 30-residue segment of the intermediate domain; printed monomer mass 17.5 kDa; Forms open-ended helical filaments of several hundred subunits at 35 uM and above; The model in the map holds 103 residues per subunit and ends at Q121; also called hMyD88^DD; MyD88^DD; source: E. coli BL21 DE3 Rosetta 2, …) MAAGGPGAGSAAPVSSTSSLPLAALNMRVRRRLSLFLNVRTQVAADWTALAEEMDFEYLEIRQLETQADPTGRLLDAWQGRPGASVGRLLELLTKLGRDDVLLELGPSIEEDCQKYILKQQQEEAEKPLQVAAVDSSVPRTAELAGITTLD",binding result,binds
